Reference: patent US10457929B2
Where two headings read alike, the source gives them in different places.

Key:
[1] = target: peptic-tryptic-pancreatinic digest of wheat gliadin
[2] = target: peptic-tryptic-pancreatinic digest of wheat gliadin; remark: listed apart in the source
[3] = target: peptic-tryptic-pancreatinic digest of wheat gliadin; remark: listed apart in the source

Row | Substance | Protection Index (%) in RLL assay [1] | further results
1 | Fraction 4 from CM Sephadex C-50 ion exchange chromatography of papaya latex (pool or library) | – | Protection Index (%) in RLL assay [2]: 84%
2 | pig intestinal enzyme extract (pool or library) | 61% | –
3 | caricain (EC 3.4.22.30) (from UniProt P10056) (enzyme) | – | Protection offered against gliadin in RLL Assay [3]: 32.3%

Now from value to substance, other results behind:

Row | Protection Index (%) in RLL assay [1] | Substance | further results
4 | 92% | Combination (1:1) of pig intestinal extract and crude caricain (pool or library) | –
5 | 71% | crude caricain (pool or library) | –
